Experimental data from patent publication US20250084372A1, “IN VITRO DERIVATION OF GONADAL SOMATIC CELLS” (Conception Bisosciences, Inc., priority 2020, published 2025).

How the values were obtained:
Assay type in all cases: cell-based, human
[1] = system: ovarian somatic cells (OSCs); test: Concentration titration of BMP4, follistatin and FGF2 in OSC induction, qPCR for GATA4 and FOXL2
Method: Various concentration titrations of BMP4, Follistatin and FGF were tested in OSC induction, and the resulting cells were examined for expression of bipotential gonadal markers as well as that of granulosa markers.
The OSCs were induced based on the protocols described in Example 6, but with various concentrations of BMP4. Follistatin and FGF tested.
The OSC induction conditions were first tested by varying the BMP4 concentration. […] The gene expression of resulting cells was tested by qPCR for bi-potential gonadal cell markers (GATA4) as well as for granulosa cell markers (FOXL2) (FIGS. 12A and 12B respectively). Expression of GATA4 increased with higher BMP4 concentration, and FOXL2 expression appeared to peak at 10 ng/ml of BMP4 under the conditions tested.
Four different concentrations of follistatin were then tested in OSC induction, with the concentration of BMP4 kept constant at 20 ng/ml as previously described. The gene expression of resulting cells was tested by qPCR for bi-potential gonadal cell markers (GATA4) as well as for granulosa cell markers (FOXL2) (FIGS. 12C and 12D respectively). […] The generation of mature OSCs were also examined by FOXL2 expression. […] In subsequent experiments, OSC induction in the absence or at lower concentrations of follistatin was further explored.
Five different concentrations of FGF2 were then tested in OSC induction, with the concentration of BMP4 kept constant at 20 ng/mL and follistatin removed (Ong/mL). The gene expression of resulting cells were tested by qPCR for bi-potential gonadal cells (GATA4) as well as for granulosa cells (FOXL2) (FIGS. 12E and 12F respectively). As shown by FIGS. 12E and 12F, both GATA4 expression and FOXL2 expression reached saturation at 20 ng/ml of FGF2.

[2] = system: ovarian somatic cells (OSCs); test: OSC induction with different FGF family members, marker expression; conditions: 10 ng/mL FGF in granulosa double medium
Method: Fibroblast growth factors (FGFs) are a large family of proteins that are important for signaling events in a wide variety of processes. […] Briefly, gonadal cells were induced in granulosa doublemedium comprising different FGFs, and the expression of bipotential gonadal markers as well as that of granulosa markers were measured in the resulting cells.
The replated cells from the second intermediate population were incubated in the granulosa double medium (also referred to as gonadal induction medium or OSC induction medium) according to Table 18, with the same concentration of either FGF2, 9, 10, 16, 17, 18 or 19. The expression of bipotential gonadal markers (WT1, LHX9, GADD45G and GATA4) as well as granulosa markers (FOXL2, NR1H4 and KITLG) were measured in the resulting cells.

[3] = system: ovarian somatic cells (OSCs); test: OSC induction with different BMP isoforms, marker qPCR; conditions: 20 ng/mL BMP in granulosa double medium
Method: Gonadal somatic cells were induced in granulosa double medium comprising different BMP isoforms, and the expression of bipotential gonadal markers as well as that of granulosa markers were measured in the resulting cells.
The expression of bipotential gonadal markers (WT1, LHX9, GADD45G and GATA4) as well as granulosa markers (FOXL2, NR1H4 and KITLG) were measured by qPCR in the resulting cells.

B1: follistatin: protein component of gonadal induction medium (protein, UniProt P19883 30-344, looked up)
Follistatin: GNCWLRQAKNGRCQVLYKTELSKEECCSTGRLSTSWTEEDVNDNTLFKWMIFNGGAPNCIPCKETCENVDCGPGKKCRMNKKNKPRCVCAPDCSNITWKGPVCGLDGKTYRNECALLKARCKEQPELEVQYQGRCKKTCRDVFCPGSSTCVVDQTNNAYCVTCNRICPEPASSEQYLCGNDGVTYSSACHLRKATCLLGRSIGLAYEGKCIKAKSCEDIQCTGGKKCLWDFKVGRGRCSLCDELCPDSKSDEPVCASDNATYASECAMKEAACSSGVLLEVKHSGSCNSISEDTEEEEEDEDQDYSFPISSILEW
GATA4 expression on removing follistatin altogether ([1]; 0 ng/mL follistatin, BMP4 20 ng/ml): increase | FOXL2 expression ([1]; 25 ng/ml follistatin, no further increase at higher concentrations): marginal increase | FOXL2 expression ([1]; higher concentrations of follistatin, BMP4 20 ng/ml): marginal increase

B2: FGF10: fibroblast growth factor family member (protein, UniProt O15520 38-208, looked up)
Fibroblast growth factor 10: QALGQDMVSPEATNSSSSSFSSPSSAGRHVRSYNHLQGDVRWRKLFSFTKYFLKIEKNGKVSGTKKENCPYSILEITSVEIGVVAVKAINSNYYLAMNKKGKLYGSKEFNNDCKLKERIEENGYNTYASFNWQHNGRQMYVALNGKGAPRRGQKTRRKNTSAHFLPMVVHS
expression of bipotential gonadal markers (WT1, LHX9, GADD45G, GATA4) compared to FGF2 [2]: comparable or higher | expression of granulosa markers (FOXL2, NR1H4, KITLG) compared to corresponding medium [2]: comparable

B3: FGF17: fibroblast growth factor family member (protein, UniProt O60258 23-216, looked up)
Fibroblast growth factor 17: TQGENHPSPNFNQYVRDQGAMTDQLSRRQIREYQLYSRTSGKHVQVTGRRISATAEDGNKFAKLIVETDTFGSRVRIKGAESEKYICMNKRGKLIGKPSGKSKDCVFTEIVLENNYTAFQNARHEGWFMAFTRQGRPRQASRSRQNQREAHFIKRLYQGQLPFPNHAEKQKQFEFVGSAPTRRTKRTRRPQPLT
expression of bipotential gonadal markers (WT1, LHX9, GADD45G, GATA4) compared to FGF2 [2]: comparable or higher | expression of granulosa markers (FOXL2, NR1H4, KITLG) compared to corresponding medium [2]: comparable

B4: BMP15: BMP isoform in gonadal induction medium (protein, UniProt O95972 268-392, looked up)
Bone morphogenetic protein 15: QADGISAEVTASSSKHSGPENNQCSLHPFQISFRQLGWDHWIIAPPFYTPNYCKGTCLRVLRDGLNSPNHAIIQNLINQLVDQSVPRPSCVPYKYVPISVLMIEANGSILYKEYEGMIAESCTCR
expression of bipotential gonadal markers (WT1, LHX9, GADD45G, GATA4) compared to BMP4 [3]: comparable or higher | expression of granulosa markers (FOXL2, NR1H4, KITLG) compared to BMP4 [3]: comparable or higher

B5: BMP4: BMP isoform in gonadal induction medium (protein, UniProt P12644 293-408, looked up)
Bone morphogenetic protein 4: SPKHHSQRARKKNKNCRRHSLYVDFSDVGWNDWIVAPPGYQAFYCHGDCPFPLADHLNSTNHAIVQTLVNSVNSSIPKACCVPTELSAISMLYLDEYDKVVLKNYQEMVVEGCGCR
BMP4 concentration at which FOXL2 expression peaks ([1]; OSC induction): 10 ng/mL | concentration at which the BMP4 effect saturates for OSCs ([1]; OSC induction): 20 ng/mL | expression of GATA4 ([1]; higher BMP4 concentration): increased

B6: BMP7: BMP isoform in gonadal induction medium (protein, UniProt P18075 293-431, looked up)
Bone morphogenetic protein 7: STGSKQRSQNRSKTPKNQEALRMANVAENSSSDQRQACKKHELYVSFRDLGWQDWIIAPEGYAAYYCEGECAFPLNSYMNATNHAIVQTLVHFINPETVPKPCCAPTQLNAISVLYFDDSSNVILKKYRNMVVRACGCH
expression of bipotential gonadal markers (WT1, LHX9, GADD45G, GATA4) compared to BMP4 [3]: comparable or higher | expression of granulosa markers (FOXL2, NR1H4, KITLG) compared to BMP4 [3]: comparable or higher

B7: FGF18: fibroblast growth factor family member (protein, UniProt O76093 28-207, looked up)
Fibroblast growth factor 18: EENVDFRIHVENQTRARDDVSRKQLRLYQLYSRTSGKHIQVLGRRISARGEDGDKYAQLLVETDTFGSQVRIKGKETEFYLCMNRKGKLVGKPDGTSKECVFIEKVLENNYTALMSAKYSGWYVGFTKKGRPRKGPKTRENQQDVHFMKRYPKGQPELQKPFKYTTVTKRSRRIRPTHPA
expression of bipotential gonadal markers (WT1, LHX9, GADD45G, GATA4) compared to FGF2 [2]: comparable or higher | expression of granulosa markers (FOXL2, NR1H4, KITLG) compared to corresponding medium [2]: comparable
